Experimental data: publication PMC5440690, “Sirt1 carboxyl-domain is an ATP-repressible domain that is transferrable to other proteins” (Nature Communications, 2017)

Substrate: NC(=O)c1ccc[n+]([C@@H]2O[C@H](COP(=O)([O-])OP(=O)(O)OC[C@H]3O[C@@H](n4cnc5c(N)ncnc54)[C@H](O)[C@@H]3O)[C@@H](O)[C@H]2O)c1
Assay: steady-state deacetylation kinetics (Km)
Assay type: biochemical, Mus musculus

B1: Sirt1 (Mus musculus) (protein)
chain: ADEVALALQAAGSPSAAAAMEAASQPADEPLRKRPRRDGPGLGRSPGEPSAAVAPAAAGCEAASAAAPAALWREAAGAAASAEREAPATAVAGDGDNGSGLRREPRAADDFDDDEGEEEDEAAAAAAAAAIGYRDNLLLTDGLLTNGFHSCESDDDDRTSHASSSDWTPRPRIGPYTFVQQHLMIGTDPRTILKDLLPETIPPPELDDMTLWQIVINILSEPPKRKKRKDINTIEDAVKLLQECKKIIVLTGAGVSVSCGIPDFRSRDGIYARLAVDFPDLPDPQAMFDIEYFRKDPRPFFKFAKEIYPGQFQPSLCHKFIALSDKEGKLLRNYTQNIDTLEQVAGIQRILQCHGSFATASCLICKYKVDCEAVRGDIFNQVVPRCPRCPADEPLAIMKPEIVFFGENLPEQFHRAMKYDKDEVDLLIVIGSSLKVRPVALIPSSIPHEVPQILINREPLPHLHFDVELLGDCDVIINELCHRLGGEYAKLCCNPVKLSEITEKPPRPQKELVHLSELPPTPLHISEDSSSPERTVPQDSSVIATLVDQATNNNVNDLEVSESSCVEEKPQEVQTSRNVENINVENPDFKAVGSSTADKNERTSVAETVRKCWPNRLAKEQISKRLEGNQYLFVPPNRYIFHGAEVYSDSEDDVLSSSSCGSNSDSGTCQSPSLEEPLEDESEIEEFYNGLEDDTERPECAGGSGFGADGGDQEVVNEAIATRQELTDVNYPSDKS
notes: recombinant WT Sirt1
Km: 203.08 ± 13.24 µM
